From the supplement of paper PMC10126150 come the findings set out here.

± gives the standard deviation of the averaged measurements.
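Further: ATP exposure 15 min at 22 °C before imaging.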

The data set deals with ATP. The data set can be described thus: switch fluorescence ratio, 500 uM ATP over buffer (Cy3 cluster intensity, sum of 5 cycles each) (fold (ratio)); higher = stronger signal-on switching upon ATP binding; sequences stand for … in TCGTCGGCAGCGTCAGATGTGTATAAGAGACAGTTTTTTTTTTTTTTTTTTTTTTTTT…TC. The following applies: aptamer strand: ATP DNA aptamer (quencher-CACCTGGGGGAGTATTGCGGAGGAAGG + anchor), 100 nM annealed; ATP concentration: 500 uM. An outline of the steps:
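Between each of five buffer/ATP cycles, the flow-cell was stripped with NaOH and re-annealed. Each cycle imaged Cy3-labelled switching-strand clusters, annealed to 100 nM quencher-labelled ATP aptamer on a modified Illumina MiSeq flow-cell, first in selection buffer and then after 15 min with 500 uM ATP at 22 °C. The fluorescence ratio is summed target-cycle over summed buffer-cycle Cy3 intensity per cluster, averaged per switch-domain sequence, with clusters outside 100-1000 RFU excluded.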
Turning to CCACTTGCTA, the switch fluorescence ratio is 1.16 ± 0.037.

For the sequence AGGGAGGAAA, the switch fluorescence ratio is 1 ± 0.036.

Consider TAGGGTGAGC, for which the switch fluorescence ratio was determined as 1.02 ± 0.019.

TTATGATTGG: the switch fluorescence ratio was 0.987 ± 0.02.

With TTACCGGATT, the switch fluorescence ratio was determined as 0.993 ± 0.022.

On to TTGAGTTTAC, for which the switch fluorescence ratio is 1.058 ± 0.0028.

On to AGGTAGGTTC, for which the switch fluorescence ratio is 0.995 ± 0.019.

For GCAAGTGGTG, the switch fluorescence ratio turned out to be 1.02 ± 0.03.

Consider AAGACGTGGA, for which the switch fluorescence ratio was found to be 0.9993 ± 0.0064.

On to AGGCTTACCC, for which the switch fluorescence ratio is 1.01 ± 0.018.

For CGGGGTGGGG, the switch fluorescence ratio was found to be 0.993 ± 0.056.

Take TGCTATATTT: the switch fluorescence ratio worked out at 1.01 ± 0.024.

With ATGTTCGGCC, the switch fluorescence ratio turned out to be 1.012 ± 0.01.

Take TTCCTTTAAA: the switch fluorescence ratio amounted to 1.07 ± 0.065.

Consider TCAGAGGAG, for which the switch fluorescence ratio amounted to 1.01 ± 0.025.

In the case of ACCCAAAAAG, the switch fluorescence ratio is 1.05 ± 0.12.

On to TGTGAGTCGG, for which the switch fluorescence ratio stood at 0.948 ± 0.03.

Regarding ATAAGTGTCA, the switch fluorescence ratio worked out at 0.9926 ± 0.0067.

For the sequence TGCATGGCTG, the switch fluorescence ratio was 0.99 ± 0.01.

CTCTGGACTA: the switch fluorescence ratio was found to be 1.11 ± 0.017.

With AATGTTTGCT, the switch fluorescence ratio stood at 1 ± 0.018.

As for CTCGGTGGTG, the switch fluorescence ratio was 0.959 ± 0.024.

For the sequence AGTAGGTAAT, the switch fluorescence ratio was 0.9902 ± 0.0071.

For CCATGTTGAG, the switch fluorescence ratio turned out to be 0.997 ± 0.0086.

Take CTTATGAAGC: the switch fluorescence ratio worked out at 1.14 ± 0.012.

Consider TTTATTAAGG, for which the switch fluorescence ratio came out at 1 ± 0.023.

TTGTTGTCTA: the switch fluorescence ratio was found to be 0.995 ± 0.015.

Turning to TTAGCATATA, the switch fluorescence ratio turned out to be 2.42 ± 1.9.

Regarding CGACACTATT, the switch fluorescence ratio is 1.06 ± 0.034.

Turning to ATGGATATTA, the switch fluorescence ratio turned out to be 1.03 ± 0.046.

In the case of GGGCAATGTC, the switch fluorescence ratio worked out at 1.39 ± 0.072.

Turning to TTGAGTCCTT, the switch fluorescence ratio turned out to be 1.04 ± 0.022.

Consider AGAAATTAGT, for which the switch fluorescence ratio stood at 1.03 ± 0.015.

Take TAGCCGGTCG: the switch fluorescence ratio amounted to 0.9846 ± 0.0023.

Turning to TATGGGGGGG, the switch fluorescence ratio was 0.994 ± 0.038.

As to GGCAGGGGTA, the switch fluorescence ratio is 0.995 ± 0.028.

Consider ATCATTGGTT, for which the switch fluorescence ratio stood at 1.01 ± 0.015.

As to GGGGCCCCGT, the switch fluorescence ratio amounted to 1.016 ± 0.0043.

Consider CGGTTATAAG, for which the switch fluorescence ratio turned out to be 0.9679 ± 0.00054.

Take GGTACTCATT: the switch fluorescence ratio amounted to 0.994 ± 0.034.

In the case of GAAGGATGCT, the switch fluorescence ratio came out at 1.03 ± 0.098.

Turning to ACAGGAGTTC, the switch fluorescence ratio was determined as 0.968 ± 0.053.

As for TCTAGGGGAG, the switch fluorescence ratio came to 1.007 ± 0.0099.

For the sequence GCTCAATCTT, the switch fluorescence ratio was determined as 0.967 ± 0.01.

ATAGTTATCT: the switch fluorescence ratio is 1.03 ± 0.026.

In the case of TTGAAGTTGT, the switch fluorescence ratio was found to be 1.01 ± 0.039.

On to CCAGTGACAT, for which the switch fluorescence ratio amounted to 1.03 ± 0.028.

On to ACTGGCCCCG, for which the switch fluorescence ratio was determined as 1.34 ± 0.41.

Regarding TCATTGTGGT, the switch fluorescence ratio is 0.988 ± 0.018.

As to CTATTTTGGC, the switch fluorescence ratio was found to be 0.966 ± 0.038.

Consider AGAATAAGTT, for which the switch fluorescence ratio was found to be 1.013 ± 0.0018.

As to ATAGATAACG, the switch fluorescence ratio was 1 ± 0.035.

As to TTACCAGGGG, the switch fluorescence ratio turned out to be 1.4 ± 0.25.

As to CATTTTGCGC, the switch fluorescence ratio came to 1.04 ± 0.042.

As for AAAAAGCAGG, the switch fluorescence ratio was found to be 1.13 ± 0.14.

As to CTTAATCGGC, the switch fluorescence ratio amounted to 1.09 ± 0.11.

With AACTTAAGGG, the switch fluorescence ratio was found to be 1.003 ± 0.0092.

As for TTCGACTCCT, the switch fluorescence ratio stood at 1.09 ± 0.087.

With TTCGTGCATC, the switch fluorescence ratio worked out at 1.06 ± 0.026.

In the case of TCGGCGTTGA, the switch fluorescence ratio worked out at 0.992 ± 0.02.

Take GCTGTTTGGG: the switch fluorescence ratio came to 0.997 ± 0.014.

Take TTGGGAGCGT: the switch fluorescence ratio was found to be 1.01 ± 0.017.

Consider CGAGGGATTC, for which the switch fluorescence ratio came to 1.12 ± 0.048.

As to GGAGGCAGTT, the switch fluorescence ratio is 0.9738 ± 0.006.

For TGTGCCGCGC, the switch fluorescence ratio amounted to 1.06 ± 0.07.

For the sequence TGTATGTGGG, the switch fluorescence ratio was 0.999 ± 0.028.

Take CGGGCGGGGT: the switch fluorescence ratio is 1.03 ± 0.051.

Regarding TAGCCGGGAC, the switch fluorescence ratio was 1.25 ± 0.26.

Take AAACGGGAG: the switch fluorescence ratio was 1.032 ± 0.0067.

Take AATCGTGGTA: the switch fluorescence ratio amounted to 1.01 ± 0.029.

For the sequence TGAAGGAGAA, the switch fluorescence ratio was determined as 0.929 ± 0.037.

On to TGTTTCATGC, for which the switch fluorescence ratio stood at 1.07 ± 0.16.

Turning to CGTGTCGCTG, the switch fluorescence ratio was 0.971 ± 0.024.

As to CCCTTTATTT, the switch fluorescence ratio amounted to 1.29 ± 0.36.

In the case of TTAAGCAGTT, the switch fluorescence ratio came out at 0.9853 ± 0.0056.

As for ATATATGGCT, the switch fluorescence ratio came out at 0.999 ± 0.035.

On to ATTAATAAAG, for which the switch fluorescence ratio worked out at 0.9984 ± 0.0086.

In the case of ACGAGCGATT, the switch fluorescence ratio turned out to be 1.7 ± 0.058.

With CGATAGAAAG, the switch fluorescence ratio amounted to 1.01 ± 0.024.

Take AAGGATCTGG: the switch fluorescence ratio was 0.977 ± 0.026.

TTTAGCTGGT: the switch fluorescence ratio amounted to 0.986 ± 0.033.

Consider TGGGTTCTGT, for which the switch fluorescence ratio came to 0.974 ± 0.0099.

On to CACTGTCTT, for which the switch fluorescence ratio was found to be 0.991 ± 0.019.

As for GGTGGGGGCA, the switch fluorescence ratio came out at 0.979 ± 0.029.

For the sequence GTGGTCCGGG, the switch fluorescence ratio turned out to be 0.979 ± 0.037.

On to GTGTTTGTGG, for which the switch fluorescence ratio worked out at 0.966 ± 0.033.

On to TTTAAGATTA, for which the switch fluorescence ratio is 0.9843 ± 0.0063.

On to GAGTTTGGTA, for which the switch fluorescence ratio was 0.96 ± 0.027.

As to ACATAGGGTA, the switch fluorescence ratio was 1.01 ± 0.013.

TTCATAACTT: the switch fluorescence ratio stood at 0.99 ± 0.018.

On to TGCTTAGTTC, for which the switch fluorescence ratio came out at 0.959 ± 0.046.

TTTGTTCGTT: the switch fluorescence ratio was determined as 1.01 ± 0.029.

Turning to TTGGATTGGC, the switch fluorescence ratio worked out at 0.978 ± 0.023.

With GGCGTTTTGA, the switch fluorescence ratio was 1.04 ± 0.021.

As to GATACTATGT, the switch fluorescence ratio turned out to be 1.01 ± 0.0085.

On to GAAGCCTTGG, for which the switch fluorescence ratio was 1.009 ± 0.004.

For the sequence GTGAATGCTG, the switch fluorescence ratio stood at 0.938 ± 0.048.

With GGCGGAGAGA, the switch fluorescence ratio was determined as 1.03 ± 0.07.

Take TAATCGGCCT: the switch fluorescence ratio worked out at 1.04 ± 0.05.

For TCGTATTGGG, the switch fluorescence ratio was 1 ± 0.056.

In the case of ATGTGGTGTC, the switch fluorescence ratio was 1.02 ± 0.015.

With TAAATAAATG, the switch fluorescence ratio was 0.976 ± 0.048.

Regarding GCGTCAGTCG, the switch fluorescence ratio was determined as 0.949 ± 0.015.

Take TGGGTCTAAG: the switch fluorescence ratio is 0.9669 ± 0.0093.

For the sequence GTGTGCCGGG, the switch fluorescence ratio came to 0.97 ± 0.0043.

As for GGGGGGTCTG, the switch fluorescence ratio is 1 ± 0.037.

For the sequence GCGTTATTTG, the switch fluorescence ratio was found to be 0.9878 ± 0.0073.

With TCAACGAAGA, the switch fluorescence ratio is 1.01 ± 0.018.

Take TTTTAGTCTA: the switch fluorescence ratio was determined as 0.9809 ± 0.0021.

As to GTTAATGGGG, the switch fluorescence ratio was 0.986 ± 0.054.

Regarding CAAGCTTGGG, the switch fluorescence ratio turned out to be 1 ± 0.034.

On to CTTGGGAGGC, for which the switch fluorescence ratio is 1.02 ± 0.067.

For the sequence ATTGAGGCAG, the switch fluorescence ratio amounted to 0.9824 ± 0.0028.

For the sequence AATTGGTGAA, the switch fluorescence ratio was 1.01 ± 0.014.

On to TTGCAAGCGG, for which the switch fluorescence ratio was 0.995 ± 0.011.

GAGTTGGGTG: the switch fluorescence ratio was 1.01 ± 0.032.

Turning to AGATCAGTGC, the switch fluorescence ratio was 0.997 ± 0.011.

For TGGGGGTTAC, the switch fluorescence ratio was 1.08 ± 0.13.

Regarding GTGGAAAGAT, the switch fluorescence ratio was determined as 1.01 ± 0.018.

As to CCTAATTTTA, the switch fluorescence ratio was determined as 0.971 ± 0.043.
